Patent publication US11325966

Experiments:
Test in all cases: cell-based or functional assay
[1] = biological target: HIV-1 Env of pseudovirus C3347.c11 (HIV-1)
[2] = biological target: HIV-1 Env of pseudovirus ZM135M.PL10a (HIV-1)
92BR020 (HIV-1) = biological target: 92BR020 (HIV-1)
92BR020 D325A (HIV-1) = biological target: 92BR020 D325A (HIV-1)
92BR020 H33OA (HIV-1) = biological target: 92BR020 H33OA (HIV-1)
[3] = biological target: 92BR020 N136A + N156A + N301A (HIV-1)
[4] = biological target: 92BR020 N136A + N332A (HIV-1)
[5] = biological target: 92BR020 N156A + N332A (HIV-1)
92BR020 N301A (HIV-1) = biological target: 92BR020 N301A (HIV-1)
92BR020 N386A (HIV-1) = biological target: 92BR020 N386A (HIV-1)
92BR020 N392A (HIV-1) = biological target: 92BR020 N392A (HIV-1)
92BR020 Q328A (HIV-1) = biological target: 92BR020 Q328A (HIV-1)
92BR020 R327A (HIV-1) = biological target: 92BR020 R327A (HIV-1)
[6] = biological target: BG505 (T332N) N156A (HIV-1)
[7] = biological target: BG505 (T332N) N295A (HIV-1)
[8] = biological target: BG505 (T332N) N392A (HIV-1)
[9] = biological target: HIV-1 Env of pseudovirus 7030102001E5(Rev-) (HIV-1)
JR-CSF G324A (HIV-1) = JR-CSF G324A (HIV-1) (UniProt P20871)
JR-CSF H33OA (HIV-1) = JR-CSF H33OA (HIV-1) (UniProt P20871)
JR-CSF I326A (HIV-1) = JR-CSF I326A (HIV-1) (UniProt P20871)
JR-CSF N332A (HIV-1) = JR-CSF N332A (HIV-1) (UniProt P20871)
JR-CSF N339A (HIV-1) = JR-CSF N339A (HIV-1) (UniProt P20871)
JR-CSF N386A (HIV-1) = JR-CSF N386A (HIV-1) (UniProt P20871)
JR-CSF Q328A (HIV-1) = JR-CSF Q328A (HIV-1) (UniProt P20871)

What does the source list for BG18 IgG (354BG18) (antibody)?
IC50 in TZM-bl assay [1]: > 30 µg/mL; IC80 in TZM-bl assay [1]: > 30 µg/mL; IC50 in TZM-bl assay [2]: 0.029 µg/mL; IC80 in TZM-bl assay [2]: 0.161 µg/mL

Which results are given for PGT121 (antibody)?
IC50 in TZM-bl assay (92BR020 (HIV-1)): 0.004 µg/mL; IC50 in TZM-bl assay (92BR020 D325A (HIV-1)): 0.006 µg/mL; IC50 in TZM-bl assay (92BR020 H33OA (HIV-1)): 0.003 µg/mL; IC50 in TZM-bl assay [3]: 0.001 µg/mL; IC50 in TZM-bl assay [4]: > 1 µg/mL; IC50 in TZM-bl assay [5]: > 1 µg/mL; IC50 in TZM-bl assay (92BR020 N301A (HIV-1)): 0.003 µg/mL; IC50 in TZM-bl assay (92BR020 N386A (HIV-1)): 0.006 µg/mL; IC50 in TZM-bl assay (92BR020 N392A (HIV-1)): 0.007 µg/mL; IC50 in TZM-bl assay (92BR020 Q328A (HIV-1)): 0.002 µg/mL; IC50 in TZM-bl assay (92BR020 R327A (HIV-1)): 0.001 µg/mL; IC50 in TZM-bl assay [6]: 0.007 µg/mL; IC50 in TZM-bl assay [7]: 0.014 µg/mL; IC50 in TZM-bl assay [8]: 0.006 µg/mL; IC80 in TZM-bl assay [9]: 0.042 µg/mL; IC50 in TZM-bl assay [2]: 0.73 µg/mL; IC80 in TZM-bl assay [2]: 5.73 µg/mL; IC50 in TZM-bl assay (JR-CSF G324A (HIV-1)): 0.044 µg/mL; IC50 in TZM-bl assay (JR-CSF H33OA (HIV-1)): 0.017 µg/mL; IC50 in TZM-bl assay (JR-CSF I326A (HIV-1)): 0.024 µg/mL; IC50 in TZM-bl assay (JR-CSF N332A (HIV-1)): > 50 µg/mL; IC50 in TZM-bl assay (JR-CSF N339A (HIV-1)): 0.007 µg/mL; IC50 in TZM-bl assay (JR-CSF N386A (HIV-1)): 0.024 µg/mL; IC50 in TZM-bl assay (JR-CSF Q328A (HIV-1)): 0.057 µg/mL
